# Measurements as given in patent US8097440B1, “Engineered microorganisms capable of producing target compounds under anaerobic conditions” (Gevo, Inc., priority 2008, dated 2012).
# Where a chain is given by its changes, count along the chain named. Names and notes keep the numbering of the source.
# B1: E. coli KARI Ec_IlvC variant Ec_IlvC^S78D-his6 (S78D), SEQ ID NO: 17 (Escherichia coli K-12; S78D) (protein)
# chain: MANYFNTLNLRQQLAQLGKCRFMGRDEFADGASYLQGKKVVIVGCGAQGLNQGLNMRDSGLDISYALRKEAIAEKRADWRKATENGFKVGTYEELIPQADLVINLTPDKQHSDVVRTVQPLMKDGAALGYSHGFNIVEVGEQIRKDITVVMVAPKCPGTEVREEYKRGFGVPTLIAVHPENDPKGEGMAIAKAWAAATGGHRAGVLESSFVAEVKSDLMGEQTILCGMLQAGSLLCFDKLVEEGTDPAYAEKLIQFGWETITEALKQGGITLMMDRLSNPAKLRAYALSEQLKEIMAPLFQKHMDDIISGEFSSGMMADWANDDKKLLTWREETGKTAFETAPQYEGKIGEQEYFDKGVLMIAMVKAGVELAFETMVDSGIIEESAYYESLHELPLIANTIARKRLYEMNVVISDTAEYGNYLFSYACVPLLKPFMAELQPGDLGKAIPEGAVDNGQLRDVNEAIRSHAIEQVGKKLRGYMTDMKRIAVAGLEHHHHHH
# B2: E. coli KARI Ec_IlvC variant Ec_IlvC^Q110V-his6 (Q110V), SEQ ID NO: 23 (Escherichia coli K-12; Q110V) (protein)
# chain: B1 chain with D78S, Q110V
# B3: E. coli KARI Ec_IlvC variant Ec_IlvC^Q110A-his6 (Q110A), SEQ ID NO: 21 (Escherichia coli K-12; Q110A) (protein)
# chain: MANYFNTLNLRQQLAQLGKCRFMGRDEFADGASYLQGKKVVIVGCGAQGLNQGLNMRDSGLDISYALRKEAIAEKRASWRKATENGFKVGTYEELIPQADLVINLTPDKAHSDVVRTVQPLMKDGAALGYSHGFNIVEVGEQIRKDITVVMVAPKCPGTEVREEYKRGFGVPTLIAVHPENDPKGEGMAIAKAWAAATGGHRAGVLESSFVAEVKSDLMGEQTILCGMLQAGSLLCFDKLVEEGTDPAYAEKLIQFGWETITEALKQGGITLMMDRLSNPAKLRAYALSEQLKEIMAPLFQKHMDDIISGEFSSGMMADWANDDKKLLTWREETGKTAFETAPQYEGKIGEQEYFDKGVLMIAMVKAGVELAFETMVDSGIIEESAYYESLHELPLIANTIARKRLYEMNVVISDTAEYGNYLFSYACVPLLKPFMAELQPGDLGKAIPEGAVDNGQLRDVNEAIRSHAIEQVGKKLRGYMTDMKRIAVAGLEHHHHH
# How the values were obtained:
# [1] = target: T1, Escherichia coli KARI (ketol-acid reductoisomerase) Ec_IlvC^his6, wild type IlvC (SEQ ID NO: 13) with his6-tag, SEQ ID NO: 15 (Escherichia coli, UniProt P05793); test: KARI cuvette assay, purified Ec_IlvC^his6 (parent / wild type); assay type: biochemical, E. coli; details: purified; acetolactate as substrate
# T1 sequence (P05793 with tags, fused parts or gaps): B1 chain with D78S
# Experimental: KARI cuvette assay: KARI activity was assayed kinetically by monitoring the decrease in NAD(P)H concentration by measuring the absorbance at 340 nm. A reaction buffer was prepared containing 250 mM potassium phosphate pH 7, 1 mM DTT and 10 mM MgCl2. Cell pellets were resuspended (0.25 g wet weight/mL buffer) in 250 mM potassium phosphate (KPi) buffer containing 1 mM DTT and 10 mM MgCl2. The resuspended cells were lysed by sonication for 1 min with a 50% duty cycle and pelleted at 11000×g and 4° C. for 15 min. A reaction mixture consisting of 910 μl reaction buffer, 50 μl acetolactate, and 20 μl lysate was prepared in a cuvette. […]
# Only 20% of the enzymes of the recombination library were active on NADH. After screening 1,000 clones using the NADH depletion assay at 340 nm, 26 KARI variants were selected for a rescreen by the high-throughput assay described in Example 14 and eight thereof were expressed in 25 ml LBamp medium in shake flasks according to the protocol for cell growth and protein expression in shake flasks as described in Example 14, purified according to the protocol for purification of KARI enzymes as described in Example 14, and NAD(P)H depletion at 340 nm was measured again. […] The KM values of variants Ec_llvC^2H10-his6 and Ec_llvC^6E6-his6 were measured and the catalytic efficiencies were calculated.
# [2] = target: T2, E. coli KARI Ec_IlvC variant Ec_IlvC^P2D1-A1-his6 (Ec_IlvC^P2D1-his6 with K433E), SEQ ID NO: 42 (Escherichia coli, UniProt P05793, A71S/D146G/G185R/K433E/Q110V/R76D/S78D); test: KARI assay, purified Ec_IlvC^P2D1-A1-his6; assay type: biochemical; details: expressed in yeast GEVO1186, purified
# T2 sequence (P05793 with tags, fused parts or gaps A71S/R76D/S78D/Q110V/D146G/G185R/K433E): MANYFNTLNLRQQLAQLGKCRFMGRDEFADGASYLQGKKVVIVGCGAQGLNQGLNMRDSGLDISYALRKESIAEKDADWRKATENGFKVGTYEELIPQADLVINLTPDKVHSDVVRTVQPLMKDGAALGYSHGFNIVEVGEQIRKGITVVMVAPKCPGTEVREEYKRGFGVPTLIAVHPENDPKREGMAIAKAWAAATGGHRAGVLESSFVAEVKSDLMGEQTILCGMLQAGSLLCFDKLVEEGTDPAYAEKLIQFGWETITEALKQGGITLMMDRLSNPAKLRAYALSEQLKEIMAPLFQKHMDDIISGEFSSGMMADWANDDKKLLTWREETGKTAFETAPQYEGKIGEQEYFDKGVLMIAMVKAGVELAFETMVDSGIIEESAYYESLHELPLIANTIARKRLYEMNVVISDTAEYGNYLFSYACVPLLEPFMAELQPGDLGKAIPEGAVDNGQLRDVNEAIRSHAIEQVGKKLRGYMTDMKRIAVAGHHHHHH
# Experimental: (§1) KARI cuvette assay: KARI activity was assayed kinetically by monitoring the decrease in NAD(P)H concentration by measuring the absorbance at 340 nm. A reaction buffer was prepared containing 250 mM potassium phosphate pH 7, 1 mM DTT and 10 mM MgCl2. Cell pellets were resuspended (0.25 g wet weight/mL buffer) in 250 mM potassium phosphate (KPi) buffer containing 1 mM DTT and 10 mM MgCl2. The resuspended cells were lysed by sonication for 1 min with a 50% duty cycle and pelleted at 11000×g and 4° C. for 15 min. A reaction mixture consisting of 910 μl reaction buffer, 50 μl acetolactate, and 20 μl lysate was prepared in a cuvette. The reaction was initiated by addition of 20 μL of 10 mM NAD(P)H. A substrate free control was conducted using reaction buffer without the addition of acetolactate.
# (§2) Purification of KARI: Cell pellets used for purification were resuspended in purification buffer A (20 mM Tris, 20 mM imidazol, 100 mM NaCl, 10 mM MgCl2, pH 7.4). KARI was purified by IMAC (Immobilized metal affinity chromatography) over a 1 ml Histrap High Performance (histrap HP) column pre-charged with Nickel (GE Healthcare) using an Akta FPLC system (GE Healthcare). […]
# [3] = test system: Lactococcus lactis alcohol dehydrogenase Ll_AdhA, SEQ ID NO: 67; details: NADPH as cofactor; cited from earlier work
# [4] = target: T3, E. coli KARI Ec_IlvC variant Ec_IlvC^S78D-his6 (S78D), SEQ ID NO: 17 (Escherichia coli, UniProt P05793, S78D); test: KARI cuvette assay, purified Ec_IlvC^S78D-his6; assay type: biochemical; details: from 1075 μM to 130 μM
# T3 sequence (P05793 with tags, fused parts or gaps S78D): B1 chain
# Experimental: as §1, §2
# [5] = substrate: NC(=O)C1=CN([C@@H]2O[C@H](COP(=O)(O)OP(=O)(O)OC[C@H]3O[C@@H](n4cnc5c(N)ncnc54)[C@H](OP(=O)(O)O)[C@@H]3O)[C@@H](O)[C@H]2O)C=CC1; test: KARI cuvette assay, purified Ec_IlvC^S78D-his6; assay type: biochemical, E. coli; details: other: purified
# Experimental: as §1
# (§3) Purification of KARI: Cell pellets used for purification were resuspended in purification buffer A (20 mM Tris, 20 mM imidazol, 100 mM NaCl, 10 mM MgCl2, pH 7.4). KARI was purified by IMAC (Immobilized metal affinity chromatography) over a 1 ml Histrap High Performance (histrap HP) column pre-charged with Nickel (GE Healthcare) using an Akta FPLC system (GE Healthcare). The column was equilibrated with four column volumes (cv) of buffer A. After injecting the crude extract, the column was washed with buffer A for 2 cv, followed by a wash step with a mixture of 10% elution buffer B (20 mM Tris, 300 mM imidazol, 100 mM NaCl, 10 mM MgCl2, pH 7.4) for 5 cv. KARI variants were eluted at 40% buffer B and stored at 4° C.
# (§4) Five individual site saturation libraries were generated and electro-competent E. coli BL21(DE3) cells were transformed with the desalted ligation mixtures. 88 clones of each library were screened for NAD(P)H depletion at 340 nm in microplates. Clones with an improved NADH/NADPH consumption ratio while maintaining or increasing their NADH activity were chosen for a rescreen. Variants that passed the rescreen were sequenced, expressed in shake flasks, purified, and characterized. […]
# [6] = substrate: NC(=O)C1=CN([C@@H]2O[C@H](COP(=O)(O)OP(=O)(O)OC[C@H]3O[C@@H](n4cnc5c(N)ncnc54)[C@H](O)[C@@H]3O)[C@@H](O)[C@H]2O)C=CC1; test: KARI cuvette assay, purified Ec_IlvC^S78D-his6; assay type: biochemical, E. coli
# Experimental: as §1, §3, §4
# [7] = substrate: NC(=O)C1=CN([C@@H]2O[C@H](COP(=O)(O)OP(=O)(O)OC[C@H]3O[C@@H](n4cnc5c(N)ncnc54)[C@H](O)[C@@H]3O)[C@@H](O)[C@H]2O)C=CC1; test: KARI cuvette assay, purified Ec_IlvC^Q110V-his6; assay type: biochemical, E. coli
# Experimental: as §1, §2
# [8] = substrate: NC(=O)C1=CN([C@@H]2O[C@H](COP(=O)(O)OP(=O)(O)OC[C@H]3O[C@@H](n4cnc5c(N)ncnc54)[C@H](O)[C@@H]3O)[C@@H](O)[C@H]2O)C=CC1; test: KARI cuvette assay, purified Ec_IlvC^Q110A-his6; assay type: biochemical, E. coli
# Experimental: as §1, §2
# [9] = other: purified, acetolactate as substrate
molecule,measurement,setting,value
"NC(=O)C1=CN([C@@H]2O[C@H](COP(=O)(O)OP(=O)(O)OC[C@H]3O[C@@H](n4cnc5c(N)ncnc54)[C@H](OP(=O)(O)O)[C@@H]3O)[C@@H](O)[C@H]2O)C=CC1 [NADPH, nicotinamide adenine dinucleotide phosphate]",kcat/KM,[1],"87,300 M^−1 * s^−1"
same,Km,[2],> 1430 µM
same,kcat/KM,[2],<377 M^−1 * S^−1
same,activity when tested with NADPH as a cofactor,[3],^adid not show any detectably activity when tested with NADPH as a cofactor
same,decrease of KM value compared to wild-type,[4],16 fold
B1,Km,[5],130 µM
same,kcat/Km,[6]; [9],"27,600 M^−1 * s^−1"
same,kcat/Km,[6]; with NADH,3770 M⁻¹ s⁻¹
B2,kcat/Km,[7]; [9],24800 M⁻¹ s⁻¹
same,kcat/Km,[7]; with NADH,569000 M⁻¹ s⁻¹
B3,kcat/Km,[8]; [9],11100 M⁻¹ s⁻¹
same,kcat/Km,[8]; with NADH,302000 M⁻¹ s⁻¹
